The values that follow come from paper PMC10865538 (BMC Infectious Diseases, 2024).

The target of the assay is SARS-CoV-2 S protein receptor-binding domain (R319-F541) (SARS-CoV-2, UniProt P0DTC2). Briefly: ELISA. The settings on record: both partners purified. (In general: An ELISA detects its analyte on a solid surface through an enzyme-linked reagent.)

The term EC50 denotes the concentration needed to bring the measured effect to its halfway point. Read a low EC50 as an effect from little substance.

B1: sdAb42 (VHH)
VHH: EVQLVESGGGLVQPGGSLRLSCAASGNTSTRHPMSWVRQAPGKGLELVASIGRGEITYYADSVKGRFTISRDNSKNTLYLQMNSLRAEDTAVYYCAVDAVFGGRHSHWGQGTLVTVSS
As for B1, the binding result is reported as “binds”.

B2: sdAb12 (VHH)
VHH: EVQLVESGGGLVQPGGSLRLSCAASGNTFPARTMSWVRQAPGKGLELVASIGRGEITYYADSVKGRFTISRDNSKNTLYLQMNSLRAEDTAVYYCAAPAHGSWMSRRPHIYWGQGTLVTVSS
B2: the binding result was “binds”.

B3: sdAb38 (VHH)
VHH: EVQLVESGGGLVQPGGSLRLSCAASGNTSTRHPMSWVRQAPGKGLELVASIGRGEITYYADSVKGRFTISRDNSKNTLYLQMNSLRAEDTAVYYCAVCLRSVFVNCHNFAYWGQGTLVTVSS
As for B3, the binding result was “binds”.

B4: sdAb10 (VHH)
VHH: EVQLVESGGGLVQPGGSLRLSCAASGNTFPARTMSWVRQAPGKGLELVASIGPGRSTIYADSVKGRFTISRDNSKNTLYLQMNSLRAEDTAVYYCAVAYTSGLALRGSFSYWGQGTLVTVSS
Take B4: the binding result is given as “binds”.

B5: sdAb39 (VHH)
VHH: EVQLVESGGGLVQPGGSLRLSCAASGNTSTRHPMSWVRQAPGKGLELVASIGRGEITYYADSVKGRFTISRDNSKNTLYLQMNSLRAEDTAVYYCAAFVDFLSRHNSRRPYPHGYWGQGTLVTVSS
B5 returned an EC50 of 4 nM.
